# Experimental data: patent publication US20230183322A1 (PEKING UNIVERSITY, published 2023)
# Substitutions are numbered along the chain they refer to.
# B1: ABU-386 (antibody, V domains shown)
# VH: EVQLVESGGGLVQPGGSLRLSCAASGVTVSSNYMSWVRQAPGKGLEWVSAVYSGGSTYYADSVKGRFTISRHNSKNTLYLQMKSLRPEDTAIYYCARLINHYYDSSGDGGAFDIWGQGTMVTVSS
# VL: QSALTQPASVSGSPGQSITISCTGTSSDVGSYNLVSWYQQRPGKAPKLILYEVTKRPSGVSNRFSGSKSGNTASLAISGLQAEDEADYYCCSYAGSSTWVFGGGTKLTVL
# B2: ABU-391 (antibody, V domains shown)
# VH: EVQLVESGGGLIQPGGSLRLSCAASGFIVSSNYMSWVRQAPGKGLEWVSVIYSGGSTYYADSVKGRFTISRDNSKNTLYLQMNSLRAEDTAVYYCARDYGDYYFDYWGQGTLVTVSS
# VL: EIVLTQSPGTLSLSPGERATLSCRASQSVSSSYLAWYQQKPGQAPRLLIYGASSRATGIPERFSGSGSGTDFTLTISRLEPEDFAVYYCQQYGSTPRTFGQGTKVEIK
# B3: ABU-395 (antibody, V domains shown)
# VH: B2 VH with L4V, I12V, I28T, S31F, S53P, D72H, L78V, Y102F
# VL: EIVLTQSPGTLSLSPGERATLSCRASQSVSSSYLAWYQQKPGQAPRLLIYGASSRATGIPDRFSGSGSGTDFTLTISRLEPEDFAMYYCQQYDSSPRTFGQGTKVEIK
# B4: ABU-392 (antibody, V domains shown)
# VH: B2 VH with G26E, S31R, Y79N
# VL: EIVLTQSPGTLSLSPGERATLSCRASQGVSSFLAWYQQKPGQAPRLLIHGASSRATGIPDRFSGSGSGTDFTLTITRLEPEDFAVYYCQQYGSSPRTFGQGTKVEIK
# B5: antigen-binding unit ABU-174 (antibody, V domains shown)
# VH: QVQLQQWGAGLLKPSETLSLTCAVYGGSFSDYYWNWIRRPPGKGLEWIGEITHSGSTNYNPSLKSRVTISVDTSKNQFSLKLSSVTAADTAVYYCARGQGYGRVLLWFGEWGQGTLVTVSS
# VL: EIVLTQSPATLSLSPGERATLSCRASQSVSTYLAWYQQKPGQAPRLLIYDASNRATGIPARFSGSGSGTDFTLTISSLEPEDFAVYYCQQRSNWITFGQGTRLEIK
# B6: antigen-binding unit ABU-190 (antibody, V domains shown)
# VH: EVQLVESGGGLIQPGGSLRLSCAASGITVSSNYMSWVRQAPGKGLEWVSVIYSGGSTDYADSVKGRFTISRDKSKNTLYLQMNSLRAEDTAVYYCARDLGEAGGMDVWGQGTTVTVSS
# VL: AIQLTQSPSSLSASVGDRVTITCRASQGISSYLAWYQQKPGKAPKLLIYAASTLQSGVPSRFSGSGSGTDFTLTISSLQPEDFATYYCQQLNSYPPAFGGGTKVEIK
# B7: antigen-binding unit ABU-297 (antibody, V domains shown)
# VH: EVQLLESGGGVVQPGGSLRLSCAASGFAFTTYAMNWVRQAPGRGLEWVSAISDGGGSAYYADSVKGRFTISRDNSKNTLYLQMNSLRAEDTAVYYCAKTRGRGLYDYVWGSKDYWGQGTLVTVSS
# VL: not shown
# B8: antigen-binding unit ABU-367 (antibody, V domains shown)
# VH: B2 VH with F27I, S35T, Y58F, N83S, Y99L, D101P, Y103G, F104M, Y106V, L112T
# VL: DIQLTQSPSFLSASVGDRVTITCRASQGISSDLAWYQQKPGKAPNLLIYAASTLQSGVPSRFSGSGSGTEFTLTISSLQPEDFATYYCQQLNSDLYTFGQGTKLEIK
# Molecular target: biotin-labeled SARS-COV-2 RBD domain (SARS-CoV-2, UniProt P0DTC2 319-541)
# Assay: SPR, Biacore T200, biotin-RBD on SA chip, antibody as analyte
row,Binder,Kd [nM]
1,B1,< 10
2,B2,< 20
3,B3,< 10
4,B4,< 10

# Molecular target: S protein of the novel coronavirus SARS-CoV-2 (SARS-CoV-2, UniProt P0DTC2 14-1273)
# Assay: cell-based or functional assay
row,Binder,"IC50 for neutralizing SARS-CoV-2 pseudovirus (Huh-7 cells, luciferase) [mg/L]"
1,B1,< 0.1
2,B2,< 1
3,B3,< 0.1
4,B4,< 0.1

# Molecular target: spike protein (Spike, S protein) of SARS-CoV-2 (SARS-CoV-2, UniProt P0DTC2 14-1273)
# Assay: cell-based or functional assay
row,Binder,"IC50, Plaque Reduction Neutralization Test (PRNT), SARS-CoV-2 euvirus [mg/L]"
1,B5,0.5
2,B6,0.8

# Molecular target: biotin-labeled SARS-COV-2 RBD domain (SARS-CoV-2, UniProt P0DTC2 319-541)
# Assay: SPR, Biacore T200, biotin-labeled RBD on SA chip, antibody as analyte, 1:1 model
row,Binder,Kd [nM]
1,B7,0.824
2,B8,0.18
